Target: Gal4-DNA binding domain fusion with PGC-1α (yeast) (UniProt P04386)
Experiment: cell-based or functional assay

- transactivation of the UAS-Firefly Luciferase reporter by gal4-pgc1α: 200 fold
Substance: PRDM16 expressed from pcDNA-Prdm16 plasmid in cos7 cells (from UniProt A2A935 1-1275)
